# From patent US20240218374, “Nucleic Acid Compounds That Bind Coronavirus Proteins” (Somalogic Operating Co., Inc., published 2024)
# Molecular target: Spike RBD (SARS-CoV-2, UniProt P0DTC2 SEQ:1-223)
# Experiment: filter
binder,measurement,value
"CCTTGGGATACTATGCGTCCGACCGCTCGGACGGAGAAGG (ssDNA, Y=Tyr-dU, p=Nap-dC; printed …pYAYGpGYppGAppGpYpGGApGGAGAAGG [Tyr-dU: 9,12,14,18,27; Nap-dC: 11,16,19,20,23,24,26,28,32]) [26874-29_4 (SL1111)]",Kd,0.3 nM
